Results on 9 molecules are retold here after paper PMC3246441, “Structural Basis of Response Regulator Inhibition by a Bacterial Anti-Activator Protein” (PLoS Biology, 2011).

First the molecules themselves.
B1: RapF (natural protein, B. subtilis)
chain: GSMTGVISSSSIGEKINEWYMYIRRFSIPDAEYLRREIKQELDQMEEDQDLHLYYSLMEFRHNLMLEYLEPLEKMRIEEQPRLSDLLLEIDKKQARLTGLLEYYFNFFRGMYELDQREYLSAIKFFKKAESKLIFVKDRIEKAEFFFKMSESYYYMKQTYFSMDYARQAYEIYKEHEAYNIRLLQCHSLFATNFLDLKQYEDAISHFQKAYSMAEAEKQPQLMGRTLYNIGLCKNSQSQYEDAIPYFKRAIAVFEESNILPSLPQAYFLITQIHYKLGKIDKAHEYHSKGMAYSQKAGDVIYLSEFEFLKSLYLSGPDEEAIQGFFDFLESKMLYADLEDFAIDVAKYYHERKNFQKASAYFLKVEQVRQLIQGGVSLYEIEV
notes: two heterologous residues (Gly-Ser) derived from the thrombin cleavage signal, left after removal of the N-terminal GST; RapF, Bacillus subtilis, residues 1-381; The purification is told under 'Protein Purification for Crystallization'; Monomer by SE AUC; also called wild-type RapF; source: E. coli BL21, purified (glutathione resin, thrombin cleavage, anion exchange, gel filtration); not shown: …
B4: His-ComA (wild-type full-length ComA with His tag) (natural protein, B. subtilis, UniProt P14204 1-214, looked up)
chain: MKKILVIDDHPAVMEGTKTILETDSNLSVDCLSPEPSEQFIKQHDFSSYDLILMDLNLGGEVNGMELSKQILQENPHCKIIVYTGYEVEDYFEEAIRAGLHGAISKTESKEKITQYIYHVLNGEILVDFAYFKQLMTQQKTKPAPSSQKEQDVLTPRECLILQEVEKGFTNQEIADALHLSKRSIEYSLTSIFNKLNVGSRTEAVLIAKSDGVL
notes: ComA response regulator, Bacillus subtilis, full length; Purification of His-ComA is in Text S1; also called ComA2

Data set [1] addresses B4. In words: SEC + other: total amino acid analysis; 40 µM RapF and 80 µM His-ComA in Buffer A on Superdex 200 HR10/30; fractions 12.0-13.5 ml, bands separated by SDS-PAGE and excised for total amino acid analysis (unpublished data). Particulars: both partners purified.
For data set [2], the target named is B1. In words: crystal structure; RapF-ComAC co-crystals, vapor diffusion at 20°C, 1∶1 mixture of 100 µM RapF and ComAC; 6% PEG 8,000, 240 mM calcium acetate, 80 mM sodium cacodylate pH 6.5, 20% glycerol; 2.30 Å. Particulars: both partners purified.
The target in data set [3] is B1. Kind of data set: native gel or EMSA; 10 µM RapF and 10 µM ComA or His-ComA incubated in Buffer A (20 mM Tris pH 8.0, 300 mM NaCl, 5 mM MgCl2, 1 mM DTT, 5% glycerol) 30 min at 4°C; 12% Tris-glycine native PAGE at 4°C, Coomassie; disappearance of the ComA band as indicator. The following applies: both partners purified. Background: Mobility shift assays separate free from complexed probe on a gel.

Data set [4] concerns the molecule itself. In words: SEC; Superdex 200 HR10/30 in Buffer A; RapF 20 µM, His-ComA 40 µM, incubated 30 min at 4°C; fractions by SDS-PAGE; no PhrF. A general note: Size exclusion chromatography separates by hydrodynamic size, large species first.
Another data set deals with T1, RapF-E71A (B. subtilis, UniProt P71002 2-381, E71A).
T1 construct: RapF, Bacillus subtilis, with one alanine substitution; Text S1 may tell
T1 sequence: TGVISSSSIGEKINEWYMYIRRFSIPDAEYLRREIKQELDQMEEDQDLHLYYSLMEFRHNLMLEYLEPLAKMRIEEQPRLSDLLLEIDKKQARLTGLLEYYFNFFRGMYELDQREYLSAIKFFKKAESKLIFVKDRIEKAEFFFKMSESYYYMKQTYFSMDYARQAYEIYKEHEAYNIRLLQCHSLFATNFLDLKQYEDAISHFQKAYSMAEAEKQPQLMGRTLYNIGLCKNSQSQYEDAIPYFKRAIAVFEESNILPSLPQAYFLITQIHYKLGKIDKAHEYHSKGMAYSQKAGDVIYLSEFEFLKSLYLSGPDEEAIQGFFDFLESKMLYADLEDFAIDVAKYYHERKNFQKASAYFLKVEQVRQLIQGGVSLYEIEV
In words: native gel or EMSA; 10 µM RapF and 10 µM ComA or His-ComA incubated in Buffer A (20 mM Tris pH 8.0, 300 mM NaCl, 5 mM MgCl2, 1 mM DTT, 5% glycerol) 30 min at 4°C; 12% Tris-glycine native PAGE at 4°C, Coomassie; disappearance of the ComA band as indicator. Particulars: both partners purified.

In the next data set the target is T2, RapF-P27A (B. subtilis, UniProt P71002 2-381, P27A).
T2 construct: RapF, Bacillus subtilis, with one alanine substitution; Text S1 may tell
T2 sequence: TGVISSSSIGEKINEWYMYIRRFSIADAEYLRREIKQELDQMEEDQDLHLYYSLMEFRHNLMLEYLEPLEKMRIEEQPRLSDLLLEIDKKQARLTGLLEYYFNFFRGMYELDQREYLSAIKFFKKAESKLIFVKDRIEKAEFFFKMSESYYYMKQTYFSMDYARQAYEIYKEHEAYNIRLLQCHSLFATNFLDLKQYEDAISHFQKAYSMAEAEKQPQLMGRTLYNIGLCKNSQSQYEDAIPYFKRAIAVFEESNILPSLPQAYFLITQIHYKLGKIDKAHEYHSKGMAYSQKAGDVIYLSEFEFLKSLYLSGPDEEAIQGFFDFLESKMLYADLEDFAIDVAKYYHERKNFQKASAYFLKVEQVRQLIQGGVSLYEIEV
Described as above. Particulars: both partners purified.

The target of data set [5] is B1. In words: native gel or EMSA; native PAGE binding studies with a broad concentration range of RapF and a fixed quantity of ComA (unpublished data), together with the qualitative gels; Kd is an estimate. Particulars: both partners purified.
Data set [6] concerns the target B1. Kind of data set: SEC; Superdex 200 HR10/30 in Buffer A; RapF 20 µM, His-ComA 40 µM, with PhrF 200 µM, incubated 30 min at 4°C; fractions by SDS-PAGE. Particulars: both partners purified.

In general, stoichiometry N refers to the number of molecules, sites or subunits per partner or assembly. B1: the “stoichiometry N” value in data set [1] came to 1.

B2: ComA DNA binding domain (ComAC) (domain or fragment, B. subtilis, UniProt P14204 146-214, looked up)
chain: SSQKEQDVLTPRECLILQEVEKGFTNQEIADALHLSKRSIEYSLTSIFNKLNVGSRTEAVLIAKSDGVL
notes: also called His-ComAC
As for B2, the binding result with RapF [2] is “binds”.

B3: ComA-T190A (His-ComA mutant) (natural protein, B. subtilis, UniProt P14204 1-214, looked up)
chain: MKKILVIDDHPAVMEGTKTILETDSNLSVDCLSPEPSEQFIKQHDFSSYDLILMDLNLGGEVNGMELSKQILQENPHCKIIVYTGYEVEDYFEEAIRAGLHGAISKTESKEKITQYIYHVLNGEILVDFAYFKQLMTQQKTKPAPSSQKEQDVLTPRECLILQEVEKGFTNQEIADALHLSKRSIEYSLASIFNKLNVGSRTEAVLIAKSDGVL
notes: ComA, Bacillus subtilis, full length, with one alanine substitution
On to B3, for which, in the data set with RapF [3], the binding result is listed as “binds”. As for B4, the “stoichiometry N” value in data set [4] came to 2.

B5: ComA-Y187A (His-ComA mutant) (natural protein, B. subtilis, UniProt P14204 1-214, looked up)
chain: MKKILVIDDHPAVMEGTKTILETDSNLSVDCLSPEPSEQFIKQHDFSSYDLILMDLNLGGEVNGMELSKQILQENPHCKIIVYTGYEVEDYFEEAIRAGLHGAISKTESKEKITQYIYHVLNGEILVDFAYFKQLMTQQKTKPAPSSQKEQDVLTPRECLILQEVEKGFTNQEIADALHLSKRSIEASLTSIFNKLNVGSRTEAVLIAKSDGVL
notes: as for B3
Regarding B5, the binding result with RapF [3] is on record as “binds”.

B6: ComA-N194A (His-ComA mutant) (natural protein, B. subtilis, UniProt P14204 1-214, looked up)
chain: MKKILVIDDHPAVMEGTKTILETDSNLSVDCLSPEPSEQFIKQHDFSSYDLILMDLNLGGEVNGMELSKQILQENPHCKIIVYTGYEVEDYFEEAIRAGLHGAISKTESKEKITQYIYHVLNGEILVDFAYFKQLMTQQKTKPAPSSQKEQDVLTPRECLILQEVEKGFTNQEIADALHLSKRSIEYSLTSIFAKLNVGSRTEAVLIAKSDGVL
notes: as for B3
Consider B6, for which the binding result with RapF [3] is reported as “binds”.

B7: ComA-R157A (His-ComA mutant) (natural protein, B. subtilis, UniProt P14204 1-214, looked up)
chain: MKKILVIDDHPAVMEGTKTILETDSNLSVDCLSPEPSEQFIKQHDFSSYDLILMDLNLGGEVNGMELSKQILQENPHCKIIVYTGYEVEDYFEEAIRAGLHGAISKTESKEKITQYIYHVLNGEILVDFAYFKQLMTQQKTKPAPSSQKEQDVLTPAECLILQEVEKGFTNQEIADALHLSKRSIEYSLTSIFNKLNVGSRTEAVLIAKSDGVL
notes: as for B3
As to B7, the binding result in the data set with RapF [3] was “binds”.

B8: ComA (wild-type full-length ComA, no tag named) (natural protein, B. subtilis, UniProt P14204 1-214, looked up)
chain: MKKILVIDDHPAVMEGTKTILETDSNLSVDCLSPEPSEQFIKQHDFSSYDLILMDLNLGGEVNGMELSKQILQENPHCKIIVYTGYEVEDYFEEAIRAGLHGAISKTESKEKITQYIYHVLNGEILVDFAYFKQLMTQQKTKPAPSSQKEQDVLTPRECLILQEVEKGFTNQEIADALHLSKRSIEYSLTSIFNKLNVGSRTEAVLIAKSDGVL
notes: ComA response regulator, Bacillus subtilis, full length; Native PAGE used 'either 10 µM ComA or 10 µM His-ComA as indicated'; Purification of ComA is in Text S1; also called ComAFL
For orientation: Kd means the equilibrium constant for the complex coming apart. As for B8, the binding result in the data set with RapF-E71A and with RapF-P27A was “binds” in each case. For the same molecule, the equilibrium dissociation constant (Kd) with RapF [5] is 1 to 10 µM.

B9: PhrF peptide (peptide)
peptide: QRGMI
notes: mature PhrF signalling pentapeptide of Bacillus subtilis, cut from the pro-PhrF polypeptide; Free N- and C-termini as printed (NH2-QRGMI-COOH); also called synthetic PhrF peptide; NH2-QRGMI-COOH; source: synthetic peptide (LifeTein)
With B9, the binding result with RapF [6] is reported as “binds”.
